Measured values published in article PMC6294747, “Plasmodium falciparum infected erythrocytes can bind to host receptors integrins αVβ3 and αVβ6 through DBLδ1_D4 domain of PFL2665c PfEMP1 protein” (Scientific Reports, 2018).

How the values were obtained:
[1] = biological target: T1, integrin αVβ3 (R&D Systems, Cat #3050-AV) (human, UniProt P06756 31-1048; P05106 27-718, biotinylated (for the bead assays; sites not stated) | biotinylated (for the bead assays; sites not stated)); test: Bio-Plex bead binding assay, initial velocities with Lineweaver-Burk plot; avidity constants; beads with immobilised PFL2665c DBLδ1_D4; biotinylated integrin at 3, 6 and 12 µg/ml, 0, 10, 30 min (αVβ3) or 0, 5, 15 min (αVβ6); 1xTBS, 1 mM CaCl2, 1 mM MgCl2; streptavidin-PE; corrected for HisAdEx; conditions: both partners purified
T1 construct: integrin alpha-V chain of soluble recombinant αVβ3; integrin beta-3 chain of soluble recombinant αVβ3; Molecular weight 191.3 kDa according to the manufacturer; Biotinylated when used in solution on beads; immobilised on Petri dishes for the adhesion assays; also called αVβ3 integrin; soluble recombinant αVβ3; source: bought: R&D Systems, Cat #3050-AV

[2] = biological target: T2, integrin αVβ6 (R&D Systems, Cat #3817-AV) (UniProt P06756 31-1048; P18564 22-709, biotinylated (for the bead assays; sites not stated) | biotinylated (for the bead assays; sites not stated)); test: as above; conditions: both partners purified
T2 construct: integrin alpha-V chain of soluble recombinant αVβ6; integrin beta-6 chain of soluble recombinant αVβ6; Molecular weight 189.1 kDa according to the manufacturer; Biotinylated when used in solution on beads; immobilised on Petri dishes for the adhesion assays; also called recombinant αVβ6; source: bought: R&D Systems, Cat #3817-AV

B1: DBLδ1_D4 domain of PFL2665c PfEMP1 (single domain) (domain or fragment)
chain: GDDLKQACSTKYGPKAPTSWKCVPSGVSTATSGEGGDAKSRERREAGVPTATSSGNTTGGGKDGATGGSICVPPRRRRLYVGGLTKWAKKYTGNTGESKSQEGVLQTKAVVDGKANAEGGGQKGARGPNGGTEGANSGKGAQQQQEQQQEQQQEQQQQQQQQQQQQPHSTDSSSSPPSSNPRDVDLRNAFVESAAIETFFLWDRYKKEKEKEKEDIEKNGQDTVAYTSSVEKDPQEELQRGDIPDGFLRQMFYTLGDYRDILYSGDKENGNKYMLVDDIKDISDKIKSILNSDVGQKTTAKQWWDDNGQHIWNGMIYALTYNTDTPSGDKPTQIDEVRAQLWDEKEKKPKKTDNDHDYTYENVELKEDDDQSGAKTPSASSGSNDPINNPQLSDFVEIPTYFRWLHEWGSDFCGTRKRMLGKIKHECRGDKVCSGYGENCDDQLKDNPSIFPSLNCPSCGTPCRYYKKWINTKKTEYDKQKSAYEQQQGKCEKENNGAEGNDHDKKFCTRIQNCNEAKDFLKTLGPCRTNDESGKGTLYFDDDTFKH
[1]
  Kd: 62 nM
[2]
  Kd: 56.4 nM
